# According to the supplement of paper PMC10201428:
# ± gives the standard deviation of the averaged measurements.
# B1: library; a variant is named by its letters at N, in order (parent)
# chain: ACATTTGTTGATACAACCATAAAATGATAATTACACCCATAAATTGATAATTATCACACCCANNNNNNNNNNNNNNCTCTGATCATAGTCAGACCAACATTGCTACGACCCGTATTCGCACCGACAC
# Assays:
# [1] = variants of: B1; test: relative integration efficiency (T-RL orientation) vs wild-type transposon end (log2 (normalized fold change)); transposon end mutated: right end (5 bp flank + 75 bp right end); higher = more efficient transposition; conditions: with VchCAST RNA-guided transposition machinery (E. coli BL21(DE3) host, lacZ target)
# Description: (§1)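 Pooled, barcoded VchCAST (Tn6677) mini-transposon donor libraries; each variable transposon-end sequence sits in a fixed pDonor mini-transposon context (10-bp barcode and cargo not included). Left- or right-end libraries were co-transformed with pEffector (TniQ-Cascade, TnsABC, lacZ crRNA, T7, 0.1 mM IPTG) into E. coli BL21(DE3) and grown 18 h at 37 C. T-LR and T-RL junction amplicons were sequenced; output/input barcode fold change was normalised to the mean of four wild-type barcodes and log2-transformed. Two biological replicates; zero-count/undetected variants carry floor values (-10 / -15), censored here. Barcode uncoupling by PCR recombination adds noise.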
# [2] = variants of: B1; test: relative integration efficiency (T-LR orientation) vs wild-type transposon end (log2 (normalized fold change)); transposon end mutated: right end (5 bp flank + 75 bp right end); higher = more efficient transposition; conditions: with VchCAST RNA-guided transposition machinery (E. coli BL21(DE3) host, lacZ target)
# Description: as §1
Variant,relative integration efficiency (log2) [1],relative integration efficiency (log2) [2]
TAAATTGATATTGC T52G,-0.506 ± 0.15,-0.16 ± 0.37
ATTTAACTATAACG C34A,-1.12 ± 0.27,2.11 ± 0.056
ATTTAACTATAACG A43G,-0.724 ± 0.15,2.29 ± 0.09
ATTTAACTATAACG A43T,-0.99 ± 0.12,2.15 ± 0.11
TAAAAACTTATTGC,-0.368 ± 0.07,2.34 ± 0.09
TAAGTTGATATTTT C59A,0.0617 ± 0.048,-0.156 ± 0.28
TAAATTGATATTGC A22C,-0.874 ± 0.074,-1.72 ± 0.82
TAAATTGATATTGC C57A,-0.104 ± 0.063,0.461 ± 0.12
TAAATTGATATTGC C61A,-0.241 ± 0.071,1.04 ± 0.15
TAAATTGATATTGC C61T,-0.0918 ± 0.017,0.755 ± 0.17
TAAATCGATATTGC,-0.159 ± 0.022,0.237 ± 0.063
ATTTAACTATAACG A42C,-1.82 ± 0.3,1.03 ± 0.13
ATTTAACTATAACG A42T,-0.805 ± 0.085,2.24 ± 0.14
ATTTAACTATAACG T12G,-0.699 ± 0.2,1.76 ± 0.15
TAAATTGATATTGC T32C,-0.438 ± 0.11,-0.169 ± 0.21
TAAATTGATATTGC T32A,0.933 ± 0.11,0.96 ± 0.14
TAAATTGATAATTA,0.000518 ± 0.059,0.0298 ± 0.42
TAAATTGATATTGC T78C,-0.00404 ± 0.024,-0.0349 ± 0.43
TAAATTGATATTGC T78A,-0.396 ± 0.15,-0.018 ± 0.18

Variant,relative integration efficiency (log2) [1],relative integration efficiency (log2) [2]
ATTTAACTATAACG G26T,-1.75 ± 0.32,2.24 ± 0.073
TAAATTGATATTGC C17G,-0.0518 ± 0.013,-0.402 ± 0.0041
TAAATTGATATTGC C17A,-0.124 ± 0.042,-0.331 ± 0.098
ATTTAACTATAACG A11G,-0.569 ± 0.088,1.83 ± 0.095
ATTTAACTATAACG T25G,-1.44 ± 0.3,1.851 ± 0.01
ATTTAACTATAACG A21C,-1.05 ± 0.21,1.892 ± 0.013
TAAATTGATATTGC G7T,-2.2 ± 0.4,-3.44 ± 0.49
TAAATTGATATTGC G7C,-0.529 ± 0.13,-1.41 ± 0.63
TAAACTGATATTGC,-0.0927 ± 0.037,0.318 ± 0.14
ATTTAACTATAACG G7C,-1.39 ± 0.16,1.24 ± 0.17
TAAATTGATATTGC A35C,-0.0746 ± 0.015,-0.0637 ± 0.3
TAAATTGATATTGC A16T,-0.582 ± 0.072,-0.311 ± 0.2
TAAATTGATATTGC A16C,-0.0617 ± 0.0049,0.0173 ± 0.062
TAAATGGATATTGC,-0.161 ± 0.039,1.54 ± 0.17
TAAATTGATATTGC A49G,-0.49 ± 0.084,-0.155 ± 0.12
TAAATTGATATTGC A49C,-0.518 ± 0.15,-0.614 ± 0.38
TAAATTGATATTGC A49T,-0.47 ± 0.16,0.117 ± 0.012
AAAATTGATATTGC A62T,-0.47 ± 0.19,1.67 ± 0.025
TACATTGATATTGC,-0.674 ± 0.11,1.79 ± 0.13

Variant,relative integration efficiency (log2) [1],relative integration efficiency (log2) [2]
TAAATTGATATTGC T20C,-0.448 ± 0.19,-0.577 ± 0.33
TAAATTGATATTGC T20G,-1.34 ± 0.03,-1.12 ± 0.28
TAAATTGATATTGC T5G,-0.23 ± 0.018,-0.319 ± 0.36
TAAATTGATATTGC T5C,-0.234 ± 0.068,-0.488 ± 0.12
TAAATTGATATGTA C77A,-0.158 ± 0.089,0.332 ± 0.19
TAAATTGATATTGC A15T,-0.218 ± 0.022,-0.624 ± 0.069
TAAATGTCGATTGC,-0.671 ± 0.07,2.165 ± 0.0045
ATTTAACTATAACG A33C,-1.12 ± 0.26,2.34 ± 0.17
ATTTAACTATAACG A33G,-0.971 ± 0.32,2.42 ± 0.046
ATTTAACTATAACG A16G,-1.04 ± 0.027,2.09 ± 0.17
ATTTAACTATAACG A16C,-1.24 ± 0.14,2 ± 0.11
ATTTAACTATAACG G10C,-1.15 ± 0.31,0.7 ± 0.19
TAAATTGATATTGC A47C,-0.409 ± 0.05,-0.216 ± 0.54
TAAATTGATATTGC A47T,-0.574 ± 0.2,-0.552 ± 0.16
TAAATTGATATTGC A47G,-0.0921 ± 0.17,-0.453 ± 0.42
ATTTAACTATAACG G46C,-1.79 ± 0.26,1.05 ± 0.12
ATTTAACTATAACG G46T,-1.25 ± 0.4,1.87 ± 0.23
TAAAGGTCTATTGC,-0.635 ± 0.042,2.17 ± 0.33
ATTTAACTATAACG A58C,-0.52 ± 0.37,2.86 ± 0.073
